Data as given in publication PMC5362816.

Columns and labels:
[1] = molecular target: HA-tagged CaM12 mutant (rat) (UniProt P0DP29); assay: co-IP; HA-CaM or mutants co-expressed with TRPA1-V5 in HEK293; IP with anti-HA.11 and Protein A/G PLUS-Agarose in 2 mM Ca2+; blot with anti-V5; band intensity by ImageJ, normalized by total TRPA1
[2] = molecular target: HA-tagged CaM3 mutant (rat) (UniProt P0DP29); assay: as above
[3] = molecular target: HA-tagged CaM4 mutant (rat) (UniProt P0DP29); assay: as above
[4] = molecular target: CaM-agarose (Sigma) (UniProt P62157); assay: pull-down; CaM-agarose (Sigma) incubated with HEK293 lysate expressing a V5-His-tagged TRP channel; 20 mM Tris-HCl pH 7.4, 150 mM NaCl, 1% NP-40, 4 °C; 1 mM Ca2+ (Fig. 2A) or 2 mM Ca2+ (Fig. 2B); blot with anti-V5

Chain of TRPA1-V5-His (×6) (Q8BLA8 whole entry): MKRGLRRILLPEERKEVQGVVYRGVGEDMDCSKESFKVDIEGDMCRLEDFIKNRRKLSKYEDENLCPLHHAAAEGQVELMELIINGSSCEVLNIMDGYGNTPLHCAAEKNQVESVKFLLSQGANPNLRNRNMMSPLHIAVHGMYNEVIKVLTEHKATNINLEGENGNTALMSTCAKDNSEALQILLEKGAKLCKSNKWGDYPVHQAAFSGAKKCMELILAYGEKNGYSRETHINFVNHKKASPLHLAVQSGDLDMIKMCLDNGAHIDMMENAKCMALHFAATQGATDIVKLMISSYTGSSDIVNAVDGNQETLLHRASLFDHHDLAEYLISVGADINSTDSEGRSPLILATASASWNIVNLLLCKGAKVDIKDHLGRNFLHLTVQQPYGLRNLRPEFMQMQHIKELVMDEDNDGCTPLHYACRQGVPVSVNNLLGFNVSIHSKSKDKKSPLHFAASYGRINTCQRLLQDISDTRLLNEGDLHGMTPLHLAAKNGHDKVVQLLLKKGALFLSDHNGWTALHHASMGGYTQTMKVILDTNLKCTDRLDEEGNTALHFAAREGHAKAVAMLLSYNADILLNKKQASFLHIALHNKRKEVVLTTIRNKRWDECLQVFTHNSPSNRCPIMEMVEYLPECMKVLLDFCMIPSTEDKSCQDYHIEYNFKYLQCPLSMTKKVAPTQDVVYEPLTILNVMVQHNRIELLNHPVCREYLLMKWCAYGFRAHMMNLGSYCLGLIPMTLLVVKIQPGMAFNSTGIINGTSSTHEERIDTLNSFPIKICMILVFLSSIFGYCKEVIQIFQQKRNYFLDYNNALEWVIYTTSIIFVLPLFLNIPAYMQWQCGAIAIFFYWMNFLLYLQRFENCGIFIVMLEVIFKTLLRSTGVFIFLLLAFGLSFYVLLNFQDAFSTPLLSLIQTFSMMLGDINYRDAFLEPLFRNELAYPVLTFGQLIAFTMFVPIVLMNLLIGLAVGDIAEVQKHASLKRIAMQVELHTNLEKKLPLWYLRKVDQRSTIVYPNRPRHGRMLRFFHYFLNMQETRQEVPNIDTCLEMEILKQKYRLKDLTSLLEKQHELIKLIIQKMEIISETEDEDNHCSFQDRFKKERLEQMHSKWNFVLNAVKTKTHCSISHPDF

Substance | percent reduction in TRPA1-CaM binding against wild-type CaM [1] | percent reduction in TRPA1-CaM binding against wild-type CaM [2] | percent reduction in TRPA1-CaM binding against wild-type CaM [3] | relative binding to CaM (normalized by total input) [4]
TRPA1-V5-His (×6) (from UniProt Q8BLA8 1-1125) (natural protein) | 40% | 60% | 87% | –
TRPV3 (V5-His tagged) (natural protein) | – | – | – | 0.2
